In the DeepSol protein solubility set:

test: soluble on expression in E. coli; label from the status in PepcDB or PDB records

Row | Sequence | soluble on expression in E. coli
1 | MGSDKIHHHHHHMAEPSGLLKKGEKMDSMLCTKRTLLSDEFQHWARLFMKTGKLHRKFWEWCFIAQALKEHDMLAPGRIGLGFGVGEEPLSSCFASFGASILATDLDLQNSSVAGWTKTSQHADNKGKLNKLGICPGWEFENLVEFEFANMNSIPKRYTGKFDFVWSSCSLEHLGSIEKGVTFILNSINCLKPGGVAVHTTEFNVSPNSDTIETGPTVLFRRKEIEDIIERVRSFGCRAHINWDHGDLPEDYYIDIPPYSHNPHLKLRISKYVVTSIGLVISK | not soluble
2 | MSLNVVNSIFSKLSIAPMIDWTNSPFRTLMRLLAPNALLYTEMQTTGAVQNNPDRALYFNSVEHPLAIQLGGADKSALVKCAIIAEQKGFNEINLNLGCPSDKVQAGRFGACLMKEPEHVADCIRAIKQVVGIPVTAKTRIGIDNQDSYEFFRSFSLHLVEAGCDKLIIHARKAWLNGLNPKQNRTIPPVNYDYVYELKKEIPHIFITINGNILTVEEINNHLKHVDGVMLGRLACDNPYQIAEIHQALYPEFIKIKRSQLLMNYLDYWFDQSRANLSLSILVKPLFNLAFGLPGAKHWKKKLMNIIQEKNTSGFSELIQYLLNLEAINQVEEGHHHHHH | soluble
3 | MTKETYPKATVLDISASVEYSDGGIISKQVLKNEVGNITLFSFDQGQGLSEHTAPFDAFVQILEGEAEIRIGGQPLLLKAGRSVIMPANVSHALHATKRFKMLLTMIRG | not soluble
4 | MSSRGVTAPQGFVAAGATAGIKPSGNKDMALVVNQGPEFVGAAVFTRNRVVASPVKYTKKAVANGTLRAVLYNSGNANACNGVQGDKDVHEIVDYLASKLKVDPLDIAACSTGLIGEPLPVTMIKAGVDKLIPALGDNGGEAADSIMTTDTVAKETVVKCNGWTLGGMGKGVGMMAPSLATMLVCLTTDACVTQAQAHAALSKACDVTFNTLDIDGSTSTNDTVILLANGASGITPTESEFNDAVLQACADIADQLQADAEGVTKRVRITVTGTTTDSQALNAARTLGRDNLFKCAMFGSDPNWGRVLAAVGMADADMDPDNISVYFNDQPVCLQSGGTPEARQVDLSGIDIDVRVDLGTGGPGKAFVRTTDLSHQYVEINSAYSSLEHHHHHH | not soluble
5 | MGSDKIHHHHHHMKIALGPISYCWEKDKVYTFYEKAAQSQVHSVYLGETVCSRRREVKLADYLAIARQLNAAGKEVILSTMALIEAQSEIGELKRCVDNGEFIIEANDMAAVHYASEAKLPFICGPSINNYNRASLDILHKLGMVRFVMPYELSRDWLTKVIETQPEFDIEVMGHGYMPLAHSARCFTAKHFGLRKDNCDTLCKTHPKGMLAQTQENQPLLRLNGIQTQSAAYVDLISEIPNMKALGVSYFRVSPTALSSIELADELCITLTQQQVPQSKHSSESCNGYWFGEAGFNQVSP | not soluble
6 | MNRILSMIEQMEPGVVIFNDDLTISSVSSMVFMIFGHIPRERIFAGDLLDIHDEAAREKVKETLRLARQAQRHIPLSLKFITSEGHDRYLLVKLITVAERDPASEKICALFYDITPFIVAERKLTRVPVTSRGDIHLLRPEEIVYLKADNIYSLIYTEAGEFHSDLSLGAMEKRLSEDIFYRIHRSYLVNLAKVRKVHRESSECTVAAGGGEVRLPVSRDKMQRFLTDLGLK | not soluble
7 | MGSDKIHHHHHHMAFRVILIENEVTIKVKLNNLIITKCGEDIWIPLDDISMIVLDNLASNLSTRLMCQLAEQGIGLMLYNQQHLPTGFYSAYDNHSRASKVIGFQIDKEQDYYGKLWQQIVKIKIENQAKAYQIMTRDSDGPEKIIEFSKNILIGDKSNREAHAAKVYFNLLMGTSFSRGNEDILLNSGLDYGYAVIRGYIARACVGYGLNTQIGIHHKSEYNRFNLVDDLMEPLRPIVDIVAYNSMKNDKYFTPEHRRKLVSILNMKIMYREKKMYMCNMIENYIEQYASLIMKRTDNIVFPDVYNLIGEEYG | not soluble
8 | MSLKIGIDVGSTTAKLVAVDENDNLLFSKYERHNAKAKETILSFLKELLSEIGDKDISVRITGSIGMGISEKCSLPFVQEVVAAAKAIQKDYSHVTSMIDIGGEDAKVVFFNDAEATDLRMNGNCAGGTGAFIDQMAIILGVNIDELNQLAMNATQVYPIASRCGVFCKTDIQNLIAKNVSRENIAASIFRAVAVQTVVTLAHGCDITTPVLFCGGPLTFIPALRKAFIDYLSLDEKEIILPANGTLLPALGAALFHLDKEDYCKLSHLIDKEGHHHHHH | soluble
9 | MSLGKFLVEREQMRYPVDVYTGKIQAYPEGKPSAIAKIQVDGELMLTELGLEGDEQAEKKVHGGPDRALCHYPREHYLYWAREFPEQAELFVAPAFGENLSTDGLTESNVYMGDIFRWGEALIQVSQPRSPCYKLNYHFDISDIAQLMQNTGKVGWLYSVIAPGKVSADAPLELVSRVSDVTVQEAAAIAWHMPFDDDQYHRLLSAAGLSKSWTRTMQKRRLSGKIEDFSRRLWGKEGGSHHHHHH | soluble
10 | MGSDKIHHHHHHMSTNTTSHSTTHSTISSQAVVIKQADFIESIADSLQYISYYHPKDFVDAMTKAYEREESAAAKDAIAQILINSRMSAEGKRPLCQDTGIVTTFVKIGMSVQWDKTDMTVQEMVDEGVRRAYTNPDNPLRASIVSDPAGARKNTKDNTPSVVHIDMVAGNQIEVMIAAKGGGSENKSKMAMLNPSDDIAAWVEKTLPTMGAGWCPPGMLGIGIGGTAEKAAVLAKESLMDPVDIHELMARGAETTEEKLRLDIFERANNLGIGAQGLGGLTTVLDVKIKSVPTHAASKPVVMIPNCAATRHVHFHLDGTGPVDLVPPSLSDWPEITREAGENTHRVNLDTVTQAEIETWKSGDTLLLNGKMLTGRDAAHKRIQMLLESGEGLPAGVDFTGKFIYYVGPVDPVGDEVVGPAGPTTATRMDKFTDMMLDQTGLMGMIGKSERGPETVASIKKHKAVYLMAVGGAAYLVSKAIKKSRVVAFEDLGMEAIYEFDVQDMPVTVAVDTNGVNAHETGPAIWKINIANSKANK | not soluble
11 | GSHMTGPVTKEDLGRATWTFLHTLAAQYPEKPTRQQKKDVKELMTILSRMYPCRECADHFKEILRSNPAQAGSQEEFSQWLCHVHNTVNRSLGKLVFPCERVDARWGKLECEQKSCDLHGTSMDF | soluble
12 | MRTVTGAILAMNLEVKDFVHRDVEEADRRLREIGARKILLQLPDGLKPYAFDYFTYLSQRYDVILSSSPVYGACDIGPSYLYDRVDAIVQVGHSIMRNVKYPRPVIFIEHYRTVDVEDINTEALKNYRRIGLIYSIQYRPVADRVKRILESKGFEVIIGRSDRRMTYDGQVLGCNFSSVHSVEAEVEAFVIVSTGSFHALGSQISTERPVFLLDLNEMSLRSMEKEADTFIRKRYAQIYRAMDAKRICFLVDTRIGQRREKLARMLMDRARDLGKEAVLAYTDNISDQDIQNMGCDLAVYTGCPRVPIDDQDRFTVPVLTPAEFSMAFFKSSKRYVLDEIVSVDEFTDQLEHHHHHH | not soluble
13 | MPDGAQIQGLRPNGQSMEADMKLAVVTGQIVCTVRHQGLAHDKLLMVEMIDAQGNPDGQCAVAIDSIGAGTGEWVLLVSGSSARQAHRSELSPVDLCVIGIVDEVVAGGKVVFHKLEHHHHHH | not soluble
14 | TDTLTRDNGAVVGDNQNSQTAGAQGPVLLQDVQLLQKLQRFDRERIPERVVHARGTGVKGEFTASADISDLSKATVFKSGEKTPVFVRFSSVVHGNHSPETLRDPHGFATKFYTADGNWDLVGNNFPTFFIRDAIKFPDMVHAFKPDPRTNLDNDSRRFDFFSHVPEATRTLTLLYSNEGTPAGYRFMDGNGVHAYKLVNAKGEVHYVKFHWKSLQGIKNLDPKEVAQVQSKDYSHLTNDLVGAIKKGDFPKWDLYVQVLKPEELAKFDFDPLDATKIWPDVPEKKIGQMVLNKNVDNFFQETEQVAMAPANLVPGIEPSEDRLLQGRVFSYADTQMYRLGANGLSLPVNQPKVAVNNGNQDGALNTGHTTSGVNYEPSRLEPRPADDKARYSELPLSGTTQQAKITREQNFKQAGDLYRSYSAKEKTDLVQKFGESLADTLTESKNIMLSYLYKEDPNYGTRVAEVAKGDLSKVKSLAASLKD | soluble
15 | CDQFVTDALKTFENTYLNDHLPHDIHKNVMRMVNHEVSSFGVVTSAEDSYLGAVDENTLEQATWSFLKDLKRITDSDLKGELFIKELLWMLRHQKDIFNNLARQFQKEVLCPNKCGVMSQTLIWCLKCEKQLHICRKSLDCGERHIEVHRSEDLVLDCLLS | not soluble
16 | ANVKLLLPYILKWEGGFVHDPADAGGATNKGVTIATWKRVGYDKDGDGDIDVEDLKLLTDDDVLNRVLKPFYWDRWKADLIESQKVANILVDWVWGSGKYGIVIPQRILGVQADGIVGNKTLQAVNSADPDELFESIFDARREFLEDITARSIKKYEDSIGRKATERELLRHTNKRFLRGWLNRLEDI | not soluble
17 | MSLNIKRFVSWDCVNGIKGVLNENGKFSNNPMGVLNWIKAQTSEIPTILLVRDFHKFYDDPSISRTIKELSSSLRETNNNLILSSHILPSSEELDDLITILNLPLPDLSELTALIKKIAFNTDSDLSEQDLNELAIASSGLSEIKVKQVTAKALAQRGKISEGHHHHHH | not soluble
18 | LLTAAYAAKEHLIMTTPYFVPSDDLLHAICTAAQRGVDVSIILPRKNDSLLVGWASRAFFTELLAAGVKIYQFEGGLLHTKSVLVDGELSLVGTVNLDMRSLWLNFEITLVIDDAGFGSDLAAVQDDYISRSRLLDARLWLKRPLWQRIAERLFYFFSPLL | not soluble
19 | MSSTAVVPSAPGPGPGPSGGPGGGTEVIQVTNVSPSASSEQMRTLFGFLGKIDELRLFPPDDSPLPVSSRVCFVKFHDPDSAVVAQHLTNTVFVDRALIVVPYAEGVIPDETKALSLLAPANAVAGLLPGGGLLPTPNPLTQIGAVPLAALGAPALDPALAALGLPGTNLNSQSLAADQLLKLMSTVDPKLNHVAAGLVSPSLKSDTSSKEIEEAMKRVREAQSLISAAIEPDKKEEKRRHSRSRSRSRRRRTPSSSRHRRSRSRSRRRSHSKSRSRRRSKSPRRRRSHSRERGRRSRSTSKARD | soluble
20 | MTKKKAKKNQKTGAAAAPPHESQKKEKENDFEMLEDIKRDEDLFFSETDISNISNFIRTTNKSFNSLGNTFVEQFTNRCSLAIFQALATCFEIHSEERDDVIRRLNIIYIVWRLPDLEPELRPKPPKNLSDVYSHPYATFLFAAEQIEHRIEAMLARIIVSNNINQVEKLTAPDFIQKAAAGGLTVVVEGIDRTGFVDWCEANTDHWPEVHDSVVPLPKAMRELGCERKDYESGMAEAFYPIMHNAPTQLPPRMEALEQEDPIIREWRLKVDPENTSATPVIYSMCSGDKMQEELMQAFDELEPTIAEYQSDLIAGMTAPELEELNKQIDCDDQMSQSSDSAPPSEVSSDLELDTALDIRDGMTMPLVDLKDEVIEGCVDRILDGTTLTTSKSDMMIQFVRTALITHPQYDRLLQASVLDENIISFIRTNVKFAGAFLVRNALSEQDTCLLFKRYMRLCEGVNSTVHSLETVLKLSKEFIEHDKLTQEHREVVLAFVRHTIRTCEGDRTVRLVAMLVKKLLRERVLNVEDIAADVKPFTLKYTDNRECTALYQSMINMQNGGGGGGQENMTTSTTTTTTTTKSSSPNSLSTTTTTTSHNPGASATTTTTTVVKTCGPATFKQTSRKVVLQFKNPSQNAHF | not soluble
21 | MSKRYAVVLAAGQGTRMKSKLYKVLHPVCGKPMVEHVVDQISTLNVDKVVTIVGHGAEKVQEHLAGKSEFVKQDEQLGTAHAVLQAKAELAGKDGVTLVVCGDTPLIEASTMEALLKYHHEKRAKATILTTVIEDPTGYGRIIRDDLGIVEKIVEHKDATEKEQRISEINTGTYCFDNKALFEALENVSNDNVQGEYYLPDVIKILKDSDEVVAAYRMESFEESLGVNDRIALAEASKLMQRRINENHMRNGVTLVNPESTYIDIDVKIGQDTVIEPGVMLRGKTVIGDDCVVTSGSEIVNSVIGERVHVRTSSIFESKVGDDVQIGPYAHLRPESDIHDHVKIGNYVETKKAVVGEGTKLPHFIYMGDAEIGKNVNVGCGSIAVNYDGKNKAKTIIGDNVFVGCNSNLIAPVKVGDRAFIAAGSTITKDVPEDALGIARAKQDNKLGYAKHLNHSK | not soluble
